B1: IL-4 2'NH2-B16 (ssRNA)
RNA: GGGAGACAAGAAUAAACGCUCAAUCACAAGCACCCUUGGGGAGCCACAUUAACGGCCUAGGCUUCGACAGGAGGCUCACAACAGGC
modifications: 2'-NH2 C and U
B2: IL-4 2'NH2-B14 (ssRNA)
RNA: GGGAGACAAGAAUAAACGCUCAAUAAAUGGAGAGCCACACUAACGGCGUAUGAAAACACUCAUUCGACAGGAGGCUCACAACAGGC
modifications: 2'-NH2 C and U
B3: IL-4 2'NH2-B26 (ssRNA)
RNA: GGGAGACAAGAAUAAACGCUCAAAUGGAGAGCCACAUUAACGGCAGCAUAUCACAGUAGGAAUUCGACAGGAGGCUCACAACAGGC
modifications: 2'-NH2 C and U
B4: IL-4 2'NH2-B5 (ssRNA)
RNA: GGGAGACAAGAAUAAACGCUCAACGAUAGUAUACACAUGAUGAUGGGGAGCCACGUGUACGGCUUCGACAGGAGGCUCACAACAGGC
modifications: 2'-NH2 C and U
B5: IL-4 2'NH2-12 (ssRNA)
RNA: GGGAGACAAGAAUAAACGCUCAAGGACUGGUGAGCCACGUAUACGGUCUUAGGGGCUUGGGCGUUCGACAGGAGGCUCACAACAGGC
modifications: 2'-NH2 C and U
B6: IL-4 2'NH2-B31 (ssRNA)
RNA: GGGAGACAAGAAUAAACGCUCAAGAGCUGGUGAGCCACGUAUACGGUCUUAGGGGCUUGGGCGUUCGACAGGAGGCUCACAACAGGC
modifications: 2'-NH2 C and U
B7: IL-4 2'NH2-31 (ssRNA)
RNA: GGGAGACAAGAAUAAACGCUCAAGUGCUGGUGAGCCACGCAUACGGUCUUAGGGGCUUGAGCGUUCGACAGGAGGCUCACAACAGGC
modifications: 2'-NH2 C and U
B8: IL-4 2'NH2-B24 (ssRNA)
RNA: GGGAGACAAGAAUAAACGCUCAAAGAUUUAAAGUAUUUGGGGAGCCACAUCAACGGCAUUGUGUUCGACAGGAGGCUCACAACAGGC
modifications: 2'-NH2 C and U
B9: IL-4 2'NH2-B29 (ssRNA)
RNA: GGGAGACAAGAAUAAACGCUCAAUGACUGAACGAUGGUAUUGGAGAGCCACAUCAACGGCAAUUUCGACAGGAGGCUCACAACAGGC
modifications: 2'-NH2 C and U
B10: IL-4 2'NH2-17 (ssRNA)
RNA: GGGAGACAAGAAUAAACGCUCAAGUAUUGGGGAGCCACAUUACAACGGCACAGGCAACCAGGGUUCGACAGGAGGCUCACAACAGGC
modifications: 2'-NH2 C and U
B11: IL-4 2'NH2-B18 (ssRNA)
RNA: GGGAGACAAGAAUAAACGCUCAACGAUGGAGCGCCACAUCGCUAUAACGGCAUUUAACAAAAUUUCGACAGGAGGCUCACAACAGGC
modifications: 2'-NH2 C and U
B12: IL-4 2'NH2-22 (ssRNA)
RNA: GGGAGACAAGAAUAAACGCUCAACAGAUGGUAUCUAGUGGAGAGCCACAUCAACGGCGCAGAUUCGACAGGAGGCUCACAACAGGC
modifications: 2'-NH2 C and U
B13: IL-4 2'F/NH2-19 (ssRNA)
RNA: GGGAGACAAGAAUAAACGCUCAAGUCUUCCAUGGGGAGCCACAUUAACGGCGCAAUACUGAACUUCGACAGGAGGCUCACAACAGGC
modifications: 2'-F C, 2'-NH2 U
B14: IL-4 2'F/NH2-13 (ssRNA)
RNA: GGGAGACAAGAAUAAACGCUCAACUCGGGAGCCAGAGUAACAACGGCACUAUAUAAUUUUACUUCGACAGGAGGCUCACAACAGGC
modifications: 2'-F C, 2'-NH2 U
B15: IL-4 2'NH2-27 (ssRNA)
RNA: GGGAGACAAGAAUAAACGCUCAACCUUGUGGGGAGCCACGUAUACGGCCAUAGCAUACCGCAAUUCGACAGGAGGCUCACAACAGGC
modifications: 2'-NH2 C and U
B16: IL-4 2'NH2-B8 (ssRNA)
RNA: GGGAGACAAGAAUAAACGCUCAAUGUGGGGAGCCACAGUUAACGGCUUCAACUGAUUAGAAUUCGACAGGAGGCUCACAACAGGC
modifications: 2'-NH2 C and U

Target: IL-4 (Homo sapiens, UniProt P05112 P05112:25-153)
Sequence (P05112 25-153, one chain of several): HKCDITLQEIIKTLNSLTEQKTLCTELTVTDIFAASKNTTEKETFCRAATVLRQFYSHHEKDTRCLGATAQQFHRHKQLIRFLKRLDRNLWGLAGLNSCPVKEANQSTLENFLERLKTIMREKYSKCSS
Assay: filter; group 1 stated to bind IL-4
Details: tags: R&D Systems

Binding result, binds:
B1, B2, B3, B4, B5, B6, B7, B8, B9, B10, B11, B12, B13, B14, B15, B16
